Measurements as given in patent publication US20220042033A1, “COMPOSITION AND METHOD FOR CONFERRING AND/OR ENHANCING TOLERANCE AGAINST HERBICIDES BY USING VARIANTS OF PPO” (FarmHannong Co., Ltd., priority 2017, published 2022).

Columns and labels:
MxPPO [1] = experiment: PPO enzyme activity of purified MBP-fused MxPPO wild type and variants; format: biochemical, Myxococcus xanthus; conditions: PPO enzyme activity of purified MxPPO protein, relative to wild type
MxPPO [2] = experiment: Herbicide tolerance test of MxPPO wild type and variants in PPO-deficient E. coli BT3(ΔPPO), growth on herbicide-containing LB agar; format: cell-based, Myxococcus xanthus; conditions: relative to MxPPO WT, dark; for Herbicide tolerance, flumioxazin: up to 1000 μM (FIGS. 21-22); for Herbicide tolerance, sulfentrazone: up to 4000 μM (FIGS. 23-24)
Description: Then, the extent of tolerance was evaluated.

B1: R95A + I168C + A170C + I311M + L332T + M365V: MxPPO (SEQ ID NO: 3) variant (protein)
chain: MHHMPRTTGMNVAVVGGGISGLAVAHHLRSRGTDAVLLESSARLGGAVGTHALAGYLVEQGPNSFLDREPATRALAAALNLEGRIRAADPAAKRAYVYTRGRLRSVPASPPAFLASDILPLGARLRVAGELFSRRAPEGVDESLAAFGRRHLGHRATQVLLDAVQTGCYCGDVEQLSVAATFPMLVKMEREHRSLILGAIRAQKAQRQAALPAGTAPKLSGALSTFDGGLQVLIDALAASLGDAAHVGARVEGLAREDGGWRLIIEEHGRRAELSVAQVVLAAPAHATAKLLRPLDDALAALVAGIAYAPMAVVHLGFDAGTLPAPDGFGFTVPAEEQRRMLGAIHASTTFPFRAEGGRVLYSCVVGGARQPGLVEQDEDALAALAREELKALAGVTARPSFTRVFRWPLGIPQYNLGHLERVAAIDAALQRLPGLHLIGNAYKGVGLNDCIRNAAQLADALVAGNTSHAP
modifications: Synthetic (Protoporphyrinogen IX oxidase (MxPPO) of Myxococcus xanthus)
**Q.** Which results are given for B1?
**A.** Activity (%) (MxPPO [1]): 8%; Herbicide tolerance, flumioxazin (MxPPO [2]): + (1-9 fold higher tolerance); Herbicide tolerance, sulfentrazone (MxPPO [2]): +++ (100-999 fold higher tolerance)

B2: R95A + I168C + L332T + M365I: MxPPO (SEQ ID NO: 3) variant (protein)
chain: MHHMPRTTGMNVAVVGGGISGLAVAHHLRSRGTDAVLLESSARLGGAVGTHALAGYLVEQGPNSFLDREPATRALAAALNLEGRIRAADPAAKRAYVYTRGRLRSVPASPPAFLASDILPLGARLRVAGELFSRRAPEGVDESLAAFGRRHLGHRATQVLLDAVQTGCYAGDVEQLSVAATFPMLVKMEREHRSLILGAIRAQKAQRQAALPAGTAPKLSGALSTFDGGLQVLIDALAASLGDAAHVGARVEGLAREDGGWRLIIEEHGRRAELSVAQVVLAAPAHATAKLLRPLDDALAALVAGIAYAPIAVVHLGFDAGTLPAPDGFGFTVPAEEQRRMLGAIHASTTFPFRAEGGRVLYSCIVGGARQPGLVEQDEDALAALAREELKALAGVTARPSFTRVFRWPLGIPQYNLGHLERVAAIDAALQRLPGLHLIGNAYKGVGLNDCIRNAAQLADALVAGNTSHAP
modifications: Synthetic (Protoporphyrinogen IX oxidase (MxPPO) of Myxococcus xanthus)
**Q.** What does the source list for B2?
**A.** Activity (%) (MxPPO [1]): 34%; Herbicide tolerance, flumioxazin (MxPPO [2]): + (1-9 fold higher tolerance); Herbicide tolerance, sulfentrazone (MxPPO [2]): ++ (10-99 fold higher tolerance)

B3: R95A + A170C + I311M + M365V: MxPPO (SEQ ID NO: 3) variant (protein)
chain: MHHMPRTTGMNVAVVGGGISGLAVAHHLRSRGTDAVLLESSARLGGAVGTHALAGYLVEQGPNSFLDREPATRALAAALNLEGRIRAADPAAKRAYVYTRGRLRSVPASPPAFLASDILPLGARLRVAGELFSRRAPEGVDESLAAFGRRHLGHRATQVLLDAVQTGIYCGDVEQLSVAATFPMLVKMEREHRSLILGAIRAQKAQRQAALPAGTAPKLSGALSTFDGGLQVLIDALAASLGDAAHVGARVEGLAREDGGWRLIIEEHGRRAELSVAQVVLAAPAHATAKLLRPLDDALAALVAGIAYAPMAVVHLGFDAGTLPAPDGFGFLVPAEEQRRMLGAIHASTTFPFRAEGGRVLYSCVVGGARQPGLVEQDEDALAALAREELKALAGVTARPSFTRVFRWPLGIPQYNLGHLERVAAIDAALQRLPGLHLIGNAYKGVGLNDCIRNAAQLADALVAGNTSHAP
modifications: Synthetic (Protoporphyrinogen IX oxidase (MxPPO) of Myxococcus xanthus)
**Q.** Which results are given for B3?
**A.** Activity (%) (MxPPO [1]): 31%; Herbicide tolerance, flumioxazin (MxPPO [2]): + (1-9 fold higher tolerance); Herbicide tolerance, sulfentrazone (MxPPO [2]): + (1-9 fold higher tolerance)

B4: R95A + I168C + I311M + M365V: MxPPO (SEQ ID NO: 3) variant (protein)
chain: MHHMPRTTGMNVAVVGGGISGLAVAHHLRSRGTDAVLLESSARLGGAVGTHALAGYLVEQGPNSFLDREPATRALAAALNLEGRIRAADPAAKRAYVYTRGRLRSVPASPPAFLASDILPLGARLRVAGELFSRRAPEGVDESLAAFGRRHLGHRATQVLLDAVQTGCYAGDVEQLSVAATFPMLVKMEREHRSLILGAIRAQKAQRQAALPAGTAPKLSGALSTFDGGLQVLIDALAASLGDAAHVGARVEGLAREDGGWRLIIEEHGRRAELSVAQVVLAAPAHATAKLLRPLDDALAALVAGIAYAPMAVVHLGFDAGTLPAPDGFGFLVPAEEQRRMLGAIHASTTFPFRAEGGRVLYSCVVGGARQPGLVEQDEDALAALAREELKALAGVTARPSFTRVFRWPLGIPQYNLGHLERVAAIDAALQRLPGLHLIGNAYKGVGLNDCIRNAAQLADALVAGNTSHAP
modifications: Synthetic (Protoporphyrinogen IX oxidase (MxPPO) of Myxococcus xanthus)
**Q.** What does the source list for B4?
**A.** Activity (%) (MxPPO [1]): 37%; Herbicide tolerance, flumioxazin (MxPPO [2]): + (1-9 fold higher tolerance); Herbicide tolerance, sulfentrazone (MxPPO [2]): +++ (100-999 fold higher tolerance)
